The values that follow are results of earlier work, collected in patent US7266483B2, “System and methods for optimized drug delivery and progression of diseased and normal cells” (Optimata Ltd., priority 2000, dated 2007).

The conditions of data set [1]: modeled as exponential distribution, held constant.
In the next data set the test system is post mitotic compartment. Conditions: counts made on day 5 after G-CSF administration; noted by Price.
The mark [2] stands for this setting: average model parameter calculated from published data.

For “TPO: Thrombopoiesis-controlling cytokine, glycoprotein of about 350 amino acids; term covers its recombinant forms and analogs”, under setting [2], the “a, TPO-clearing ability of the receptors” value is reported as 38 pg/ml/hr/receptor molecule and the “f, coefficient of non-specific TPO clearance” value was 0.1 h⁻¹. Moreover, the “relation coefficient of initial maximum TPO blood concentration (xi) to administered intravenous (IV) dose (s)” value (linear relation, xi=0.0167·si) was 0.0167.

B1: G-CSF: Granulocyte-Colony Stimulating Factor; generates an increase in blood Neutrophil levels (protein, UniProt P09919 31-207, looked up)
Granulocyte …: TPLGPASSLPQSFLLKCLEQVRKIQGDGAALQEKLVSECATYKLCHPEELVLLGHSLGIPWAPLSSCPSQALQLAGCLSQLHSGLFLYQGLLQALEGISPELGPTLDTLQLDVADFATTIWQQMEELGMAPALQPTQGAMPAFASAFQRRAGGVLVASHLQSFLEVSYRVLRHLAQP
With B1, the “half-life of G-CSF in the blood” value in data set [1] was 3.5 h. Besides, the “number of cells in the post mitotic compartment following administration of G-CSF” value in the data set with post mitotic compartment was “not significantly changed”.
